Laboratory results published in patent US20250297255A1 (ARSENAL BIOSCIENCES, published 2025).

Target: T1, Human TMPRSS4 (Transmembrane protease, serine 4), wild type full length (human, UniProt Q9NRS4 1-437)
T1 construct: Type II membrane protein over-expressed on HEK293T cells (also endogenous on H1975 and LUDLU-1 cells); also called TMPRSS4 WT; HEK293T-TMPRSS4
Assay: flow cytometry, monoclonal phage on HEK293T-TMPRSS4 cells;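 further: bound phage detected with a PE-labelled mouse anti-M13 monoclonal antibody, read by flow cytometry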
Experimental: Monoclonal phages were prepared, screened for binding to HEK293T-TMPRSS4 cells by flow cytometry. Monoclonal phage clones were incubated with HEK293T-TMPRSS4 cells, the cells were washed and then incubated with a PE conjugated mouse anti-M13 mAb, and washed again before being analyzed by flow cytometry. The positive candidates were selected based on cytometry results, then followed by next-gen sequencing of the positive hits.

T1 sequence (Q9NRS4 whole entry): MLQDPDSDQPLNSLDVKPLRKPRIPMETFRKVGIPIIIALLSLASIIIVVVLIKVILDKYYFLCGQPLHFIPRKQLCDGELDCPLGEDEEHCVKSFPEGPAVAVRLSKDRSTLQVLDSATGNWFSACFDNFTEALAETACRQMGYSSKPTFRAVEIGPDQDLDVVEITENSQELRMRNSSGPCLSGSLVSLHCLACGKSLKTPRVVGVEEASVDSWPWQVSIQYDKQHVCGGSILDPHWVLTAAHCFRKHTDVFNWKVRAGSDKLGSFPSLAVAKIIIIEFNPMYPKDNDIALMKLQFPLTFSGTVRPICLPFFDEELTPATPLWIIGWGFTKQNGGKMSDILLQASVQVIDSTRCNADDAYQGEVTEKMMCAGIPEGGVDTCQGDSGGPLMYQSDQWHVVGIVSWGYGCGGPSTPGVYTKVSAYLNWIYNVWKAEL

Row | Binder | binding result
1 | TMPRSS4 Ab30 scFv (VH-VL) (scFv, on monoclonal phage in the screen) scFv: QVQLVQSGAEVKKPGASVKVSCKASGYTFTTYYMHWVRQAPGQGLEWMGWMNPNSGNTGYAQKFQGRVTMTRDTSTSTVYMELSSLRSEDTAVYYCARARTWLLSPFDYWGQGTLVTVSSGGGGSGGGGSGGGGSEIVMTQSPATLSVSPGERATLSCRASQSVGRYLAWYQQKPGQAPRLLIYGASTRATGIPARFSGSGSGTEFTLTISSLQSEDFAVYYCQHYDSSPMYTFGQGTKLEIK | binds
2 | TMPRSS4 Ab33 scFv (VH-VL) (scFv, on monoclonal phage in the screen) scFv: QVQLVQSGAEVKKPGASVKVSCKASGYTFSNYYMHWVRQAPGQGLEWVGWMNPKSGNTGYAQKFQGRVTMTRDTSTSTVYMELSSLRSEDTAVYYCARGRTWIQSSLGYWGQGTLVTVSSGGGGSGGGGSGGGGSDIQMTQSPSSLSASVGDRVTITCRASQYISRWLAWYQQKPGKAPKLLIYGSSTLQSGVPSRFSGSGSGTDFTLTISSLQPEDFATYYCQQYYSTPFTFGPGTKLEIK | binds
3 | TMPRSS4 Ab4 scFv (VH-VL) (scFv, on monoclonal phage in the screen) scFv: QVQLVQSGAEVKKPGASVKVSCKASGYFFTTYYLHWVRQAPGQGLEWMGVINPNSRLTSYAESFQGRVTMTRDTSTSTVYMELSSLRSEDTAVYYCEREMFPSSYGIDVWGQGTTVTVSSGGGGSGSGGGGSGGGGSDIVMTQSPLSLPVTPGEPASISCRSSQSLLHSNGYNYLDWYLQKPGQSPQLLIYAASTLQSGVPDRFSGSGSGTDFTLKISRVEAEDVGVYYCMQGTHWPPTFGQGTKLEIK | binds
4 | TMPRSS4 Ab24 scFv (VH-VL) (scFv, on monoclonal phage in the screen) scFv: QVQLVQSGAEVKKSGASVKVSCKASGYTFTSYYMHWVRQAPGQGLEWMGVINPSGGTTSYAQKFQGRVTMTRETSTSTVYMELSSLRSEDTAVYYCARGRGWLRSALGYWGQGTLVTVSSGGGGSGGGGSGGGGSDIQMTQSPSSLSASVGDRVTITCRASQSISSWLAWYQQKPGKAPKLLIYAASTLQSGVPSRFSGSGSGTDFTLTISSLQPEDFATYYCQQSYNTPYTFGQGTKLEIK | binds
5 | TMPRSS4 Ab27 scFv (VH-VL) (scFv, on monoclonal phage in the screen) scFv: QVQLVQSGAEVKKPGASVKVSCKASGYTFSRYYMHWVRQAPGQGLEWMGWMNPNSGDTGYAQKFQGRVTMTRDTSTSTVYMELSSLRSEDTAVYYCAKGREWLRSPFDYWGQGTLVTVSSGGGGSGGGGSGGGGSDIQMTQSPSSLSASVGDRVTITCRASQSISTWLAWYQQKPGKAPKLLIYAASSLQSGVPSRFSGSGSGTDFTLTISSLQPEDFATYYCQQLSSYPLTFGQGTKVEIK | binds
6 | TMPRSS4 Ab25 scFv (VH-VL) (scFv, on monoclonal phage in the screen) scFv: QVQLVQSGAEVKKPGASVKVSCKASGGRFSTYALSWVRQAPGQGLEWMGWINPNSGGTNYAQKFQGRVTMTRDTSTSTVYMELSSLRSEDTAVYYCAKSLWWSPSHYYYYGMDVWGQGTTVTVSSGGGGSGGGGSGGGGSEIVMTQSPATLSVSPGERATLSCRASQSVSSNYLAWYQQKPGQAPRLLIYGISTRASGIPARFSGSGSGTEFTLTISSLQSEDFAVYYCQQRSNWPPSITFGQGTRLEIK | binds
7 | TMPRSS4 Ab36 scFv (VH-VL) (scFv, on monoclonal phage in the screen) scFv: EVQLLESGGGLVQPGGSLRLSCAASGFTFSSRAMSWVRQAPGKGLEWVSRINYDGSATTYADSVKGRFTISRDNSKNTLYLQMNSLRAEDTAVYYCARGITIFGVFDYWGQGTLVTVSSGGGGSGGGGSGGGGSDIQMTQSPSSLSASVGDRVTITCRASQSISTWLAWYQQKPGKAPKLLIYRASNLQSGVPSRFSGSGSGTDFTLTISSLQPEDFATYYCQQSYSTPLTFGGGTKVEIK | binds
8 | TMPRSS4 Ab31 scFv (VH-VL) (scFv, on monoclonal phage in the screen) scFv: QVQLVQSGAEVKKPGSSVKVSCKASGYTFRGSGISWVRQAPGQGLEWMGIIYPADSETRYSPSFQGRVTITADESTSTAYMELSSLRSEDTAVYYCARESSSWDYFDYWGQGTLVTVSSGGGGSGGGGSGGGGSEIVMTQSPATLSVSPGERATLSCRASQSVRSYLAWYQQKPGQAPRLLIYGASTRATGIPARFSGSGSGTEFTLTISSLQSEDFAVYYCQQHGSLPLTFGQGTKVEIK | binds
9 | TMPRSS4 Ab34 scFv (VH-VL) (scFv, on monoclonal phage in the screen) scFv: QVQLVQSGAEVKKPGASVKVSCKASGYTFTGYYIHWVRQAPGQGLEWMGWMNPHSGNTGYAQKFQGRVTMTRDTSTSTVYMELSSLRSEDTAVYYCAREGGRYSSGRLGYWGQGTLVTVSSGGGGSGGGGSGGGGSDIQMTQSPSSLSASVGDRVTITCRASQGISSWLAWYQQKPGKAPKLLIYAASTLQTGVPSRFSGSGSGTDFTLTISSLQPEDFATYYCQQSKSIPITFGGGTKVEIK | binds
10 | TMPRSS4 Ab35 scFv (VH-VL) (scFv, on monoclonal phage in the screen) scFv: QVQLVQSGAEVKKPGASVKVSCKASGYTFTGYYMHWVRQAPGQGLEWMGKISAHSGETKYAQNVQGRVTMTRDTSTSTVYMELSSLRSEDTAVYYCARANYYGDYVNYYYGMDVWGQGTTVTVSSGGGGSGGGGSGGGGSDIQMTQSPSSLSASVGDRVTITCQASQDISNYLNWYQQKPGKAPKLLIYKASSLESGVPSRFSGSGSGTDFTLTISSLQPEDFATYYCQQTYTIPITFGQGTRLEIK | binds
11 | TMPRSS4 Ab37 scFv (VH-VL) (scFv, on monoclonal phage in the screen) scFv: EVQLLESGGGLVQPGGSLRLSCAASGFTFSSYAMHWVRQAPGKGLEWVSYISSSGSTVYYADSVKGRFTISRDNSKNTLYLQMNSLRAEDTAVYYCARVSNVTPRSGFGYWGQGTLVTVSSGGGGSGGGGSGGGGSDIQMTQSPSSLSASVGDRVTITCRASQSISRYLNWYQQKPGKAPKLLIYSASTLQSGVPSRFSGSGSGTDFTLTISSLQPEDFATYYCQQAHSFPPSFGQGTKLEIK | binds
12 | TMPRSS4 Ab32 scFv (VH-VL) (scFv, on monoclonal phage in the screen) scFv: QVQLVQSGAEVKKPGSSVKVSCKASGGTFSSYAISWVRQAPGQGLEWMGRINPSGGSTSYAQKFQGRVTMTRDTSTSTVYMELSSLRSEDTAVYYCARGRYSSSSWGQGTLVTVSSGGGGSGGGGSGGGGSDIQMTQSPSSLSASVGDRVTITCRASQSISTYLNWYQQKPGKAPKLLIYAASSLQRGVPSRFSGSGSGTDFTLTISSLQPEDFATYYCQQSYTTPLTFGGGTKVEIK | binds
13 | TMPRSS4 Ab26 scFv (VH-VL) (scFv, on monoclonal phage in the screen) scFv: EVQLLESGGGLVQPGGSLRLSCAASGFTFSSYAMHWVRQAPGKGLEWVAVIWYDGSSKYYADSVKGRFTISRDNSKNTLYLQMNSLRAEDTAVYYCARGEVRRGFQHWGQGTLVTVSSGGGGSGGGGSGGGGSDIQMTQSPSSLSASVGDRVTITCRASQNVGSWLAWYQQKPGKAPKLLIYAASSLQSGVPSRFSGSGSGTDFTLTIRSLQPEDFATYYCQQSYSTPITFGQGTRLEIK | binds
14 | TMPRSS4 Ab39 scFv (VH-VL) (scFv, on monoclonal phage in the screen) scFv: QVQLVQSGAEVKKPGASVKVSCKASGGSFSGYAVSWVRQAPGQGLEWLGVINPSDSWTAFAQKFQGRVTMTRDTSTSTVYMELSSLRSEDTAVYYCAREREDDAFDIWGQGTTVTVSSGGGGSGGGGSGGGGSDIQMTQSPSSLSASVGDRVTITCRASQGIRNWLAWYQQKPGKAPKLLIYRASTLQSGVPSRFSGSGSGTDFTLTISSLQPEDFATYYCQQSYTTPFTFGQGTKLEIK | binds
15 | TMPRSS4 Ab3 scFv (VH-VL) (scFv, on monoclonal phage in the screen) scFv: QVQLVQSGAEVKKPGSSVKVSCKASGYTFTSYDINWVRQAPGQGLEWMGGIIPIFGTTKFAQKFQGRVTITADESTSTAYMELSSLRSEDTAVYYCARDWYSSSWYNGDRGDWFDPWGQGTLVTVSSGGGGSGGGGSGGGGSDIVMTQSPLSLPVTPGEPASISCRSSGSLLHSNGYNYLDWYLQKPGQSPQLLIYAASSLQSGVPDRFSGSGSGTDFTLKISRVEAEDVGVYYCMQGTHWPGTFGQGTKVEIK | binds
16 | TMPRSS4 Ab28 scFv (VH-VL) (scFv, on monoclonal phage in the screen) scFv: QVQLVQSGAEVKKPGASVKVSCKASGYTFTGYYMHWVRQAPGQGLEWMGWMNPNSGNTGYAQKFQGRVTMTRDTSTSTVYMELSSLRSEDTAVYYCARLRAKGGGFDYWGQGTLVTVSSGGGGSGGGGSGGGGSDIQMTQSPSSLSASVGDRVTITCRASQGIGNYLAWYQQKPGKAPKLLIYAASSLESGVPSRFSGSGSGTDFTLTISSLQPEDFATYYCQQGYRFPPTFGPGTKVDIK | binds
17 | TMPRSS4 Ab41 scFv (VH-VL) (scFv, on monoclonal phage in the screen) scFv: QVQLVQSGAEVKKPGASVKVSCKASGGTFSSYAISWVRQAPGQGLEWMGWMNPNSGDTHYAQKFQGRVTMTRDTSTSTVYMELSSLRSEDTAVYYCAREGSSWYYDAFDIWGQGTLVTVSSGGGGSGGGGSGGGGSDIQMTQSPSSLSASVGDRVTITCRASQSISRWLAWYQQKPGKAPKLLIYAASTLQTGVPSRFSGSGSGTDFTLTISSLQPEDFATYYCLQHSSYPFTFGQGTKVEIK | binds
18 | TMPRSS4 Ab23 scFv (VH-VL) (scFv, on monoclonal phage in the screen) scFv: QVQLVQSGAEVKKPGASVKVSCKASGYTFTRNYLHWVRQAPGQGLEWMGIINPSGGSTTYAQKFQGRVTMTRDTSTSTVYMELSSLRSEDTAVYYCARGRTWFRSGMDVWGQGTTVTVSSGGGGSGGGGSGGGGSEIVMTQSPATLSVSPGERATLSCRASQSVGNYLAWYQQKPGQAPRLLIYGASTRATGIPARFSGSGSGTEFTLTISSLQSEDFAVYYCQQYHSSPPYTFGQGTKVEIK | binds
19 | TMPRSS4 Ab40 scFv (VH-VL) (scFv, on monoclonal phage in the screen) scFv: QVQLVQSGAEVKKPGASVKVSCKASGGTFSSYAISWVRQAPGQGLEWMGIINPRGGSTNYAQKFQGRVTMTRDTSTSTVYMELSSLRSEDTAVYYCAREGSSWYYDAFDIWGQGTMVTVSSGGGGSGGGGSGGGGSDIQMTQSPSSLSASVGDRVTITCRASQSISSYLNWYQQKPGKAPKLLIYAAYNLQSGVPSRFSGSGSGTDFTLTISSLQPEDFATYYCQQSYSIPFTFGGGTKVEIK | binds
20 | TMPRSS4 Ab38 scFv (VH-VL) (scFv, on monoclonal phage in the screen) scFv: QVQLAQSGAEVKKPGASVKVSCKASGYTFTRHYIQWVRQAPGQGLEWMGWINPNSGNTGYAQKFQGRVTMTRDTSTSTVYMELSSLRSEDTAVYYCARGRQWLRGEYFQHWGQGTLVTVSSGGGGSGGGGSGGGGSDIQMTQSPSSLSASVGDRVTITCQASQDISRYLNWYQQKPGKAPKLLIYGASNLLSGVPSRFSGSGSGTDFTLTISSLQPEDFATYYCQQTHTTPYTFGQGTRLEIK | binds
